Data as given in publication PMC8804906, “Crystal structure of Pseudomonas aeruginosa FabB C161A, a template for structure-based design for new antibiotics” (F1000Research, 2021).

Molecular target: the molecule itself
Experiment: crystal structure; PaFabB C161A lacking the His-tag (9-23 mg/mL) in 20 mM Tris-HCl, 150 mM NaCl, 1 mM DTT, pH 7.4; sitting drop, 20°C; 0.2 M sodium iodide, 0.1 M Bis-Tris propane pH 7.5, PEG 3350, ethylene glycol; space group C 2 2 21, 2 protein molecules in the asymmetric unit; 1.3 Å

B1: Pseudomonas aeruginosa FabB C161A (3-oxoacyl-[acyl-carrier-protein] synthase 1), without His-tag (enzyme)
chain: MRRVVITGLGIVSCLGNDKDTVSANLRAGRPGIRFNPSYAEMGLRSHVSGSVDLNLEELIDRKVFRFMGDAAAYAYLAMEQAIKDSGLTPEQISNPRTGLIAGSGGASTLNQMEAIDTLREKGVKRIGPYRVTRTMGSTVSACLATPFQIKGVNYSISSAAATSAHCIGQAMEQIQLGKQDVVFAGGGEEEHWSQSCLFDAMGALSTQYNETPEKASRAYDAKRDGFVIAGGGGMVVVEELEHALKRGAKIYAEIVGYGATSDGYDMVAPSGEGAIRCMQQALATVDAPIDYLNTHGTSTPVGDVAEIRGVREVFGDKAPAISSTKSLSGHSLGAAGVHEAIYCLLMMEGGFIAGSANIDELDPEVADLPILRETRENAKLDTVMSNSFGFGGTNATLVLKRWQG
notes: FabB (3-oxoacyl-[acyl-carrier-protein] synthase 1) of P. aeruginosa PA14, ORF PA14_43690, with the point mutation C161A; gene synthesised and cloned NdeI/BamHI into pET-28a(+)-TEV; 808 protein residues modelled in the dimer; also called PaFabB C161A; cleaved PaFabB C161A; not shown: His6, N-terminal, cleaved
stoichiometry N: 2
